Results on one molecule are retold here after patent US20070135335A1 (AUTOGEN RESEARCH, published 2007).

One data set concerns the target T1, bovine serum albumin (bovine, UniProt P02769 25-607).
T1 construct: Unrelated control protein in SPR
The data set is described as follows: SPR (Biacore J), Beacon immobilised on CM5 chip. On the procedure:
(§1) SPR analyses were performed with minor variations as described in Walder et al., 2002, supra using a Biacore J instrument (Biacore AB). Beacon was attached to a CM5 sensor chip at pH 5.5 by an amine coupling reaction. HBS-EP (10 mM Hepes pH 7.4/0.15 M NaCl/3 mM EDTA/0.005% Polysorbate 20) was used as running buffer. Flow cells 1 and 2 in the sensor chip were treated in the same manner except that ligand was absent in flow cell 2 which served as a reference cell. Binding experiments were performed in dual channel mode and the reference subtracted sensorgrams represented true binding patterns between ligand and analyte. Test samples diluted to 130 μl in running buffer were injected over a fixed duration of 4 min. For heat treatments, proteins were initially diluted to 20 μl in running buffer, incubated at 65 or 70° C. for 10 min, centrifuged for 30 sec, reconstituted to a final volume of 130 μl with running buffer and injected as usual. Between injections, chips were regenerated using 40 μl of 10 mM NaOH.

Another data set has as its target maltose binding protein (UniProt P0AEX9 27-396 = MBP). Nature of the data set: SPR (Biacore J), Beacon immobilised on CM5 chip. As to the method: as §1
For orientation: Surface plasmon resonance follows binding to a sensor surface in real time, without labels.

Data set [1] concerns the molecule itself. Nature of the data set: SPR (Biacore J), Beacon immobilised on CM5 chip. As to the method: as §1
The target in data set [2] is T2, GST (recombinant glutathione S-transferase, pGEX2T) (UniProt P08515 1-218 = GST).
T2 construct: Control protein in SPR
Nature of the data set: SPR (Biacore J), Beacon immobilised on CM5 chip. As to the method: as §1

Data set [3] has as its target T3, GST-CLK4 (recombinant human CLK4 fused to glutathione S-transferase, pGEX4T-1) (human, UniProt Q9HAZ1 1-481).
T3 construct: Expressed in E. coli BL21; whole entry named; not shown: glutathione S-transferase tag of expression vector pGEX4T-1
Nature of the data set: SPR (Biacore J), Beacon immobilised on CM5 chip, GST-CLK as analyte. As to the method:
(§2) FIG. 3 is a graphical representation showing the interaction between Beacon and human CLK1, 2 and 4. SPR analyses were performed as described in the Examples. Beacon immobilized on CM5 sensor chip generated 1800-2100 RU. Analyte samples injected and the heat treatments are as listed here:—
as §1

Data set [4] addresses T4, GST-CLK1 (recombinant human CLK1 fused to glutathione S-transferase, pGEX4T-1) (human, UniProt P49759 1-484).
T4 construct: Expressed in E. coli BL21; whole entry named; not shown: glutathione S-transferase tag of expression vector pGEX4T-1
The data set is described as above. As to the method: as §2, §1

The target of data set [5] is T5, GST-CLK2 (recombinant human CLK2 fused to glutathione S-transferase, pGEX4T-1) (human, UniProt P49760 1-499).
T5 construct: Expressed in E. coli BL21; whole entry named; not shown: glutathione S-transferase tag of expression vector pGEX4T-1
The description is as above. As to the method: as §2, §1

T3 sequence (Q9HAZ1 whole entry, the tested form may be a part): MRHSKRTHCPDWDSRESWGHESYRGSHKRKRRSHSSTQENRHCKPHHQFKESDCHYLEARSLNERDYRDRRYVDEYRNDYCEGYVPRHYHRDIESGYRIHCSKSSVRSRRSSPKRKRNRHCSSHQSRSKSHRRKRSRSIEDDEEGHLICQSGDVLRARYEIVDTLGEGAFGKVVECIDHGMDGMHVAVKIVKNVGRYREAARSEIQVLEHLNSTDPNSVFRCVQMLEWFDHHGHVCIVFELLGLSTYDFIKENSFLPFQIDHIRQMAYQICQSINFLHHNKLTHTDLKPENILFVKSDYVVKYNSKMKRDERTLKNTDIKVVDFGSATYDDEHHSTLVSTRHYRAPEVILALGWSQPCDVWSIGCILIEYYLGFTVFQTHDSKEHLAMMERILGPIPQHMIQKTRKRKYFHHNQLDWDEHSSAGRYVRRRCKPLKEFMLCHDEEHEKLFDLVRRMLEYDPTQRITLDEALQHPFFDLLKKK
T5 sequence (P49760 whole entry, the tested form may be a part): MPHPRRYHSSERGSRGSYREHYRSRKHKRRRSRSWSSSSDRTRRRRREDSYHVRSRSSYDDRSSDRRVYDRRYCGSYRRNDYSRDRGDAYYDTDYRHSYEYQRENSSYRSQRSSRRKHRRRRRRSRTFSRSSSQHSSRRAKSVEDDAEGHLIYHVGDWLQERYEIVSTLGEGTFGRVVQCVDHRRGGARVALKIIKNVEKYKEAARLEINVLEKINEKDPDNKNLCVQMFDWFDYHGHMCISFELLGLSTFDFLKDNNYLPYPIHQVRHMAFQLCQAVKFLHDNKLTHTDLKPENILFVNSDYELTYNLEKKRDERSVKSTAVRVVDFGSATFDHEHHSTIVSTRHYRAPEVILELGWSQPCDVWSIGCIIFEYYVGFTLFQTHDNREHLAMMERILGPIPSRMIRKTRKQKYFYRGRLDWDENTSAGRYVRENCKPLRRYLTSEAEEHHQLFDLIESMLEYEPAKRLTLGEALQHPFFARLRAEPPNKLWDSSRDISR
T4 sequence (P49759 whole entry, the tested form may be a part): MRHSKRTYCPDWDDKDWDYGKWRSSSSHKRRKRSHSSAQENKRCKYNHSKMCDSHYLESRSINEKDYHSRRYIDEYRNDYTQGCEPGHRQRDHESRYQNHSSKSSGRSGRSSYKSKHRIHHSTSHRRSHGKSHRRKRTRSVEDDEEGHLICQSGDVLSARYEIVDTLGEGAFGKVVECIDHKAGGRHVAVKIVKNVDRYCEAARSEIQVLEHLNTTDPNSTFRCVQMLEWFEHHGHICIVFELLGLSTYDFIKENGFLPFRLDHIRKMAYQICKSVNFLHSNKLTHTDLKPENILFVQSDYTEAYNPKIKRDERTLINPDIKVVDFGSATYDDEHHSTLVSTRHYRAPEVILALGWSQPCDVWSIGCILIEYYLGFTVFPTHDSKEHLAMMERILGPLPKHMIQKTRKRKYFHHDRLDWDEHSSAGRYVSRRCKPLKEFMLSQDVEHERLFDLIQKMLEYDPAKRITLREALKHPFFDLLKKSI
T1 sequence (P02769 25-607 limits assumed): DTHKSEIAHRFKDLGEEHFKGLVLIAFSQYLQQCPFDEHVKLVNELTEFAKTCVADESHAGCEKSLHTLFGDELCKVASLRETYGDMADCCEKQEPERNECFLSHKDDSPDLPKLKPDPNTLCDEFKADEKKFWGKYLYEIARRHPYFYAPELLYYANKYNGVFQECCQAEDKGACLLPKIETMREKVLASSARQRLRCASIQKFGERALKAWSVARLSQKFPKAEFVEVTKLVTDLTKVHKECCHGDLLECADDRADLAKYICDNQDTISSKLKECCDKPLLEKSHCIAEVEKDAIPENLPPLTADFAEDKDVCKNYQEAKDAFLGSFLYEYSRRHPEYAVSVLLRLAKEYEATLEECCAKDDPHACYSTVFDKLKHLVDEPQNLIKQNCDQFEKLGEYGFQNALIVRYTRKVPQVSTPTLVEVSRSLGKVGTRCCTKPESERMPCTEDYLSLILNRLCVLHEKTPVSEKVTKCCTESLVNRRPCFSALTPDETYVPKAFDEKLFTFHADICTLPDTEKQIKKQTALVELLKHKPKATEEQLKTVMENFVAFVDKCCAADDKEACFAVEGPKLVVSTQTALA
T2 sequence (P08515 whole entry): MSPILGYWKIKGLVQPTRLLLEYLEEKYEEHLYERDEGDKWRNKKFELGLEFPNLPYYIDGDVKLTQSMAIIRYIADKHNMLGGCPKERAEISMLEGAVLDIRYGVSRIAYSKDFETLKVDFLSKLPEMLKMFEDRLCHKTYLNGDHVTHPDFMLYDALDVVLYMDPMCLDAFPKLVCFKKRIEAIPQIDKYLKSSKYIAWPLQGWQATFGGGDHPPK

B1: Beacon (recombinant, expressed as GST-Beacon in E. coli, GST tag cleaved off with thrombin) (ligand)
chain: MIEVVCNDRLGKKVRVKCNTDDTIGDLKKLIAAQTGTRWNKIVLKKWYTIFKDHVSLGDYEIHDGMNLELYYQ
notes: Immobilised on a CM5 chip by amine coupling (SPR); also injected as analyte over itself
Take B1: the binding result with bovine serum albumin is on record as “no binding”; with maltose binding protein, “no binding”; in data set [1], “no binding”; in data set [2] it was “no binding”; in data set [3] it was “binds”; in data set [4], “binds”. Further, the binding result in data set [5] is “binds”.
